From publication PMC4417512, “Role of N-linked glycosylation in the secretion and enzymatic properties of Rhizopus chinensis lipase expressed in Pichia pastoris” (Microbial Cell Factories, 2015) come the findings set out here.

Read-outs that look alike come from different tables or passages of the source.

Series [1] concerns CCCCCCCCCCCCCCCC(=O)Oc1ccc([N+](=O)[O-])cc1. The experiment in a line: purified protein. As to conditions: pH 8.0, 40°C, emulsified substrate, Triton X-100 and gum arabic in the standard assay. The class given is biochemical, Rhizopus microsporus.
For series [2] the test system is unchanged. The experiment in a line: purified protein. As to conditions: pH 8.0, 40°C, emulsified substrate, Triton X-100 and gum arabic in the standard assay.

Turning to “Rhizopus chinensis lipase (RCL; proRCLCNQ): N60Q (proRCLCN60Q), mRNA level by RT-PCR”, the other result (N-glycosylation at N60) is “no change”.

For “proRCLCNQ (Rhizopus microsporus var. chinensis; K92N/N40Q/R93Q)”, the Michaelis constant (Km) in series [1] (printed Km inconsistent with printed kcat/Km (tenfold), possible misprint) was found to be 2010 ± 120 µM.

As for “proRCLCNQ (Rhizopus microsporus var. chinensis; K92N/R93Q)”, in series [1], the Km stood at 200 ± 40 µM, the catalytic constant (kcat) was determined as 60.7 ± 2.2 s⁻¹ and the kcat/Km was 292000 ± 55000 M⁻¹ s⁻¹.

On to “Rhizopus chinensis lipase (RCL; proRCLCNQ): N14Q (proRCLCN14Q), 90% (v/v) organic solvents, 24 h”, for which the stability_or_folding entry (N-glycosylation at N14) was “decreases, relative activity e.g. isooctane 78 ± 3.5% to 70 ± 3.0%; DMSO 58 ± 4.0% to 51 ± 4.2%”.

For “r27RCLC (Rhizopus microsporus var. chinensis)”, in series [2], the Km turned out to be 340 ± 100 µM, the kcat stood at 122 ± 3.1 s⁻¹ and the kcat/Km came out at 356000 ± 81000 M⁻¹ s⁻¹.

As for “Rhizopus chinensis lipase (RCL; proRCLCNQ): N14Q (proRCLCN14Q)”, where the note is “N-glycosylation at N14”, the enzymatic_activity entry is reported as “decreases, kcat 60.70 to 24.82 s-1; Km 0.20 to 2.01 mM; kcat/Km 2.92*10^5 to 1.22*10^5 M-1 s-1”; the expression_or_secretion result was “no change”; the stability_or_folding result is given as “decreases”; the structure_or_conformation entry was “no change”.

As for “Rhizopus chinensis lipase (RCL; proRCLCNQ): N60Q (proRCLCN60Q)”, for the setting “N-glycosylation at N60”, the expression_or_secretion entry is listed as “abolishes”.

“proRCLCNQ (Rhizopus microsporus var. chinensis; K92N/N74Q/R93Q)”: in series [1], the Km stood at 190 ± 20 µM, the kcat came to 61.3 ± 2.5 s⁻¹ and the kcat/Km is 311000 ± 61000 M⁻¹ s⁻¹.

In the case of “Rhizopus chinensis lipase (RCL; proRCLCNQ): N48Q (proRCLCN48Q)”, under “N-glycosylation at N48”, the enzymatic_activity entry is reported as “no change, kcat 60.70 vs 61.33 s-1; Km 0.20 vs 0.19 mM; kcat/Km 2.92*10^5 vs 3.11*10^5 M-1 s-1”; the expression_or_secretion entry is given as “no change”; the stability_or_folding result is “no change, about 70% residual activity after 1 h at 50 °C for both”.

One may read the Km as the substrate concentration at which the rate is half of its maximum. As usually defined, the kcat is the maximal rate divided by the concentration of active sites. What is called kcat/Km is the turnover number divided by the Michaelis constant.
